± gives the uncertainty stated by the source.
B1: Intersectin-2, residues 1129 to 1183; numbered along this chain, Q9NZM3 (parent)
chain: VCQVIAMYDYAANNEDELSFSKGQLINVMNKDDPDWWQGEINGVTGLFPSNYVKM

Variants of: B1
Test: abundance fitness (aPCA) (normalised: wild type 0, dead -1); higher = more abundant; growth selection in yeast, the domain comes from the species named
Settings: Homo sapiens

Abundance fitness, by site and new letter:
A12: G -0.068 ± 0.041; N 0.052 ± 0.074; L -0.578 ± 0.049; I -0.469 ± 0.08; E -0.172 ± 0.062; M -0.129 ± 0.033; Y -0.455 ± 0.045; Q -0.046 ± 0.051
L18: V -0.092 ± 0.041; I -0.001 ± 0.058; P -0.895 ± 0.18; N -0.783 ± 0.18; W -0.841 ± 0.077; Y -0.966 ± 0.16; T -0.778 ± 0.053
S50: N -0.1 ± 0.044; I -0.084 ± 0.066; M 0.004 ± 0.052; P -0.015 ± 0.031; D -0.98 ± 0.16
V28: G -0.937 ± 0.058; N -1.01 ± 0.15; R -0.718 ± 0.056; L -0.048 ± 0.046; Q -1.04 ± 0.24; S -0.94 ± 0.068; P -0.882 ± 0.053; W -0.963 ± 0.15; K -1.04 ± 0.23
I26: D -0.857 ± 0.18; P -0.925 ± 0.048; K -0.972 ± 0.065; H -1.07 ± 0.26; G -0.821 ± 0.044
Q3: W -0.076 ± 0.046; I -0.006 ± 0.083; R -0.13 ± 0.042; M -0.053 ± 0.044; C -0.066 ± 0.062; K 0.002 ± 0.039; S 0.012 ± 0.047
M7: I 0.002 ± 0.041; F -0.168 ± 0.072; Q -0.049 ± 0.053; N -0.088 ± 0.067; W -0.188 ± 0.043; C -0.02 ± 0.055; A -0.078 ± 0.038; K -0.139 ± 0.06; E -0.057 ± 0.053
E17: D -0.16 ± 0.043; C -0.105 ± 0.042; L -0.124 ± 0.03; M -0.037 ± 0.044; F -0.11 ± 0.04
V53: A -0.071 ± 0.045; R -0.703 ± 0.05; L -0.623 ± 0.042; M -0.379 ± 0.086
K54: N -0.08 ± 0.047; A -0.119 ± 0.028; M -0.154 ± 0.056; R 0.099 ± 0.052; G -0.172 ± 0.056; S -0.055 ± 0.047; W -0.388 ± 0.12; H -0.068 ± 0.032; V -0.161 ± 0.033
Q38: M -0.074 ± 0.041; A -0.009 ± 0.039; K 0.005 ± 0.053; L -0.072 ± 0.029; G -0.05 ± 0.044; Y -0.012 ± 0.072; R -0.029 ± 0.031
N30: T -0.034 ± 0.033; Q 0.019 ± 0.054; K -0.001 ± 0.048; M -0.025 ± 0.034; L -0.021 ± 0.032; P -0.688 ± 0.058; W -0.16 ± 0.05; F -0.09 ± 0.047; I -0.135 ± 0.057
N42: M -0.046 ± 0.045; Q -0.084 ± 0.05; S -0.021 ± 0.031; I -0.196 ± 0.062; E 0 ± 0.042; R -0.054 ± 0.036; W -0.148 ± 0.044
V1: F 0.04 ± 0.12; N -0.247 ± 0.18; D -0.043 ± 0.056; W -0.391 ± 0.12; I 0.077 ± 0.062; K 0.089 ± 0.3
I5: V -0.015 ± 0.037; P -0.531 ± 0.053; T 0.023 ± 0.03; S -0.134 ± 0.036
Y52: R -0.019 ± 0.038; K 0.082 ± 0.051; T -0.065 ± 0.054; M -0.002 ± 0.058; W -0.139 ± 0.045; D -0.575 ± 0.096; C -0.042 ± 0.034; H 0.009 ± 0.076; S -0.066 ± 0.028
N51: I -0.077 ± 0.032; L -0.149 ± 0.043; W -0.121 ± 0.031; F -0.141 ± 0.064; S -0.02 ± 0.028; M -0.071 ± 0.032; G -0.021 ± 0.031
M55: R -0.088 ± 0.052; V -0.103 ± 0.042; S 0.007 ± 0.06; L -0.095 ± 0.033; T -0.06 ± 0.079; E 0.009 ± 0.18
V44: S -0.046 ± 0.034; H 0.028 ± 0.058; N -0.049 ± 0.046; T -0.052 ± 0.053; K -0.056 ± 0.05; M -0.169 ± 0.061
F48: I -0.085 ± 0.06; W -1 ± 0.23
C2: F 0.023 ± 0.07; Y 0.022 ± 0.039; Q -0.107 ± 0.046; T -0.126 ± 0.051; M -0.13 ± 0.055; A -0.116 ± 0.028
S19: N -0.047 ± 0.058; C -0.066 ± 0.055; D -0.168 ± 0.075; W -0.313 ± 0.044; I -0.515 ± 0.058; A -0.045 ± 0.046; G -0.052 ± 0.045; L -0.615 ± 0.036; K -0.163 ± 0.046
Y8: S 0.001 ± 0.036; P -0.787 ± 0.14; G -0.063 ± 0.038; F 0.09 ± 0.063; V -0.045 ± 0.036; R 0.012 ± 0.033; H -0.162 ± 0.081; E -0.002 ± 0.042
P49: E -0.442 ± 0.037; M -0.086 ± 0.05; R 0.017 ± 0.039
K22: F -0.164 ± 0.036; V -0.074 ± 0.041; C -0.061 ± 0.052; I -0.063 ± 0.04; Q 0.033 ± 0.047; Y -0.172 ± 0.064; W -0.362 ± 0.052
E15: W -0.141 ± 0.047; S -0.01 ± 0.039; T 0.033 ± 0.049

Reference: the Human Domainome abundance scans (Beltran et al. 2025)
